According to patent US20220411475A1:

How the values were obtained:
[1] = target: HDV particles coated with HBV envelope proteins (L/M/S HBsAg/ay) (Hepatitis B virus genotype D, subtype ayw) (UniProt P03138); test: cell-based or functional assay
[2] = target: PreS1 synthetic peptide p(1-36) (Hepatitis B virus (ayw)); test: solid-phase ELISA, antigen on plate
[3] = target: PreS1 synthetic peptide p(18-25) (Hepatitis B virus (ayw)); test: solid-phase ELISA, antigen on plate
[4] = target: PreS1-WHc VLP-1.1+ (19-43) (Woodchuck hepatitis virus; Hepatitis B virus (ayw)); test: solid-phase ELISA, antigen on plate
[5] = target: PreS1-WHc VLP-1.3+ (1-25) (Woodchuck hepatitis virus; Hepatitis B virus (ayw)); test: solid-phase ELISA, antigen on plate
[6] = target: PreS1-WHc VLP-1.4 (15-31) (Woodchuck hepatitis virus; Hepatitis B virus (ayw)) (UniProt P0C6J2); test: solid-phase ELISA, antigen on plate
[7] = target: PreS1-WHc VLP-1.4+ (15-34) (Woodchuck hepatitis virus; Hepatitis B virus (ayw)); test: solid-phase ELISA, antigen on plate
[8] = target: PreS1-WHc VLP-1.5 (1-34) (Woodchuck hepatitis virus; Hepatitis B virus (ayw)); test: solid-phase ELISA, antigen on plate
[9] = target: PreS1-WHc VLP-1.6 (15-40); test: solid-phase ELISA, antigen on plate
[10] = target: PreS1-WHc VLP-1.9 (83-106-NH2/1-25-loop); test: solid-phase ELISA, antigen on plate
[11] = target: combination of VLPs 1.6+1.9; test: solid-phase ELISA, antigen on plate
[12] = target: myristoylated rPreS1/PreS2 protein (Hepatitis B virus (ayw)) (UniProt P03138); test: solid-phase ELISA, antigen on plate
[13] = target: purified HBV virions (Hepatitis B virus); test: solid-phase ELISA, antigen on plate
[14] = target: recombinant (r) PreS1/PreS2 protein (Hepatitis B virus (ayw)) (UniProt P03138); test: solid-phase ELISA, antigen on plate
[15] = target: PreS1 synthetic peptide p(21-42) (Hepatitis B virus (ayw)); test: solid-phase ELISA, antigen on plate
[16] = target: PreS1-WHc VLP-1.1 (21-43) (Woodchuck hepatitis virus; Hepatitis B virus (ayw)); test: solid-phase ELISA, antigen on plate

Substance | higher stringency neutralization assay, complete neutralization [1] | neutralization of HDV-HBV infection of HepaRG cells (intracellular HDV RNA) [1] | Min binding conc. [2] | Min binding conc. [3] | Min binding conc. [4] | Min binding conc. [5] | Min binding conc. [6] | Min binding conc. [7] | Min binding conc. [8] | Min binding conc. [9] | Min binding conc. [10] | Min binding conc. [11] | Min binding conc. [12] | Min binding conc. [13] | Min binding conc. [14] | Min binding conc. [15] | Min binding conc. [16]
PreS1-specific Mab 18/7 (antibody) | > 5 µg/mL | < 0.05 µg/mL | 1.6 ng/mL | 8 ng/mL | 0.3 ng/mL | 1.6 ng/mL | 0.3 ng/mL | 8 ng/mL | 0.3 ng/mL | 0.3 ng/mL | 1.6 ng/mL | 0.3 ng/mL | 0.3 ng/mL | 2 ng/mL | 0.3 ng/mL |  | 
PreS1-specific Mab KR-127 (antibody) |  |  | 1.6 ng/mL |  | 1000 ng/mL |  |  | 8 ng/mL |  | 1.6 ng/mL |  | 1.6 ng/mL | 1.6 ng/mL | 75 ng/mL | 1.6 ng/mL | 1.6 ng/mL | 1.6 ng/mL
